In experiment [1] the target is CHIKV virus-like particles (strain 37997) (chikungunya virus).
Experiment [2] shares this target. The source holds these as a separate data set.
The target of experiment [3] is CHIKV strain 181/25 (virions; also E2-E1 shown on infected cells) (chikungunya virus). As to the kind of experiment: ELISA, CHIKV-181/25 captured with a human anti-CHIKV mAb, anti-mouse IgG-HRP.
In experiment [4] the target is CHIKV E2-6K-E1 envelope proteins (strain S27) with E2 Q195A (Chikungunya virus strain S27) (UniProt Q8JUX5). In words: flow cytometry, transfected 293T cells.

Where two headings read alike, the source gives them in different places.

B1: Mxra8-Fc (extracellular domain of mouse Mxra8 fused to mouse IgG2b Fc) (Fc fusion)
chain: SGPSGTAAASSSLVSESVVSLAAGTQAVLRCQSPRMVWTQDRLHDRQRVVHWDLSGGPGSQRRRLVDMYSAGEQRVYEPRDRDRLLLSPSAFHDGNFSLLIRAVDRGDEGVYTCNLHHHYCHLDESLAVRLEVTEDPLLSRAYWDGEKEVLVVAHGAPALMTCINRAHVWTDRHLEEAQQVVHWDRQLPGVSHDRADRLLDLYASGERRAYGPPFLRDRVSVNTNAFARGDFSLRIDELERADEGIYSCHLHHHYCGLHERRVFHLQVTEPAFEPPARASPGNGSGHSSAPSPDPTLTRGHSIINVIVPEDHTHPSGPISTINPCPPCKECHKCPAPNLEGGPSVFIFPPNIKDVLMISLTPKVTCVVVDVSEDDPDVQISWFVNNVEVHTAQTQTHREDYNSTIRVVSTLPIQHQDWMSGKEFKCKVNNKDLPSPIERTISKIKGLVRAPQVYILPPPAEQLSRKDVSLTCLVVGFNPGDISVEWTSNGHTEENYKDTAPVLDSDGSYFIYSKLNMKTSKWEKTDSFSCNVRHEGLKNYYLKKTISRSPGK
As to B1, the EC50 (read off the curve) was found to be 0.01 µg/mL in experiment [1], 0.01 µg/mL in experiment [2] and 0.1 µg/mL in experiment [3].

B2: Mxra8-Fc (mouse Mxra8 extracellular domain fused to mouse IgG2b Fc) (Fc fusion)
chain: SGPSGTAAASSSLVSESVVSLAAGTQAVLRCQSPRMVWTQDRLHDRQRVVHWDLSGGPGSQRRRLVDMYSAGEQRVYEPRDRDRLLLSPSAFHDGNFSLLIRAVDRGDEGVYTCNLHHHYCHLDESLAVRLEVTEDPLLSRAYWDGEKEVLVVAHGAPALMTCINRAHVWTDRHLEEAQQVVHWDRQLPGVSHDRADRLLDLYASGERRAYGPPFLRDRVSVNTNAFARGDFSLRIDELERADEGIYSCHLHHHYCGLHERRVFHLQVTEPAFEPPARASPGNGSGHSSAPSPDPTLTRGHSIINVIVPEDHTHPSGPISTINPCPPCKECHKCPAPNLEGGPSVFIFPPNIKDVLMISLTPKVTCVVVDVSEDDPDVQISWFVNNVEVHTAQTQTHREDYNSTIRVVSTLPIQHQDWMSGKEFKCKVNNKDLPSPIERTISKIKGLVRAPQVYILPPPAEQLSRKDVSLTCLVVGFNPGDISVEWTSNGHTEENYKDTAPVLDSDGSYFIYSKLNMKTSKWEKTDSFSCNVRHEGLKNYYLKKTISRSPGK
Consider B2, for which the Binding Reactivity (% WT) in experiment [4] is 82.4 % WT.

B3: MXRA8-2-Fc (extracellular domain of human MXRA8-2 fused to mouse IgG2b Fc) (Fc fusion)
chain: ISVLLHSGSSVPAAAGSSVVSESAVSWEAGARAVLRCQSPRMVWTQDRLHDRQRVLHWDLRGPGGGPARRLLDLYSAGEQRVYEARDRGRLELSASAFDDGNFSLLIRAVEETDAGLYTCNLHHHYCHLYESLAVRLEVTDGPPATPAYWDGEKEVLAVARGAPALLTCVNRGHVWTDRHVEEAQQVVHWDRQPPGVPHDRADRLLDLYASGERRAYGPLFLRDRVAVGADAFERGDFSLRIEPLEVADEGTYSCHLHHHYCGLHERRVFHLTVAEPHAEPPPRGSPGNGSSHSGAPGPDPTLARGHNVINVIVPESRAHASVRSPSGPISTINPCPPCKECHKCPAPNLEGGPSVFIFPPNIKDVLMISLTPKVTCVVVDVSEDDPDVQISWFVNNVEVHTAQTQTHREDYNSTIRVVSTLPIQHQDWMSGKEFKCKVNNKDLPSPIERTISKIKGLVRAPQVYILPPPAEQLSRKDVSLTCLVVGFNPGDISVEWTSNGHTEENYKDTAPVLDSDGSYFIYSKLNMKTSKWEKTDSFSCNVRHEGLKNYYLKKTISRSPGK
For B3, the concentration for a half-maximal effect (EC50 (read off the curve)) in experiment [1] amounted to 0.05 µg/mL.

For the origin of these results see patent publication US20240124553A1.
